Results on 17 sequences are retold here after a protein production outcome set (Wang et al. 2014).

This data set in a line: label from the status in PepcDB records.

Consider “MDKKPLNTLISATGLWMSRTGTIHKIKHHEVSRSKIYIEMACGDHLVVNNSRSSRTARALRHHKYRKTCKRCRVSDEDLNKFLTKANEDQTSVKVKVVSAPTRTKKAMPKSVARAPKPLENTEAAQAQPSGSKFSPAIPVSTQESVSVPASVSTSISSISTGATASALVKGNTNPITSMSAPVQASAPALTKSQTDRLEVLLNPKDEISLNSGKPFRELESELLSRRKKDLQQIYAEERENYLGKLEREITRFFVDRGFLEIKSPILIPLEYIERMGIDNDTELSKQIFRVDKNFCLRPMLAPNLYNYLRKLDRALPDPIKIFEIGPCYRKESDGKEHLEEFTMLNFCQMGSGCTRENLESIITDFLNHLGIDFKIVGDSCMVYGDTLDVMHGDLELSSAVVGPIPLDREWGIDKPWIGAGFGLERLLKVKHDFKNIKRAARSESYYNGISTNL”, for which the protein production result was “not failed”.

For the sequence “MDKLDANVSSEEGFGSVEKVVLLTFLSTVILMAILGNLLVMVAVCWDRQLRKIKTNYFIVSLAFADLLVSVLVMPFGAIELVQDIWIYGEVFCLVRTSLDVLLTTASIFHLCCISLDRYYAICCQPLVYRNKMTPLRIALMLGGCWVIPTFISFLPIMQGWNNIGIIDLIEKRKFNQNSNSTYCVFMVNKPYAITCSVVAFYIPFLLMVLAYYRIYVTAKEHAHQIQMLQRAGASSESRPQSADQHSTHRMRTETKAAKTLCIIMGCFCLCWAPFFVTNIVDPFIDYTVPGQVWTAFLWLGYINSGLNPFLYAFLNKSFRRAFLIILCCDDERYRRPSILGQTVPCSTTTINGSTHVLSGCSPVSSFLLLFCNRPVPV”, the protein production entry is on record as “failed”.

“MDKLNAISIFCKVIETQSFTLAAKQQNISVAMASKLVSQLEEHLKTRLLQRTTRKIMPTEAGMMYYQRCQGILLDLDEADSSITQLTSSLQGNLLISVPRDFGLLFIAPNLPTFMAKHPHLHIEVEFNDKKIDLLSEGYDLALRIGYMEDSSLVSRKIGTTTVHFAASPNYLETNGIPQTPDDLEHHNGLLYKNAMNQVNWVGSRINQTQRFKIQSKVVSNSGFALLNMAKAGLGIANLPKFILGRAFEKGELIEILPEYKQQKLEIHVVYPNRRHLPIKVTGISLNF”: the protein production result is “failed”.

Take “MDKMTSSKHYKESMTLLFEGSLRAIPFNIILATLLALDLVYSDVPALIIGAWFFGIVFISLVRSYFCWKIIKRGVEKNRIQATLIEFFLLTFVTGSIWGACYFITLPYVNDLHEFIIILVFGGMCAGAIASLSIYLPAYYAYVFPMLLPVIVYNYALLDVDRTMLATMFLIFIAMLIISAKINHRLLNENFRLFNEKELLINELKVMSITDSLSGLYNRRYFDNIFPQEFNRARRNQYFLSLVSIDIDNFKLINDNLGHPFGDKVLISIADLLKKIFRRSNDILFRLGGDEFAIIIANQPIKETISICETIKNPFKTENLNHTYDSNEQLFMSHVTLSIGIVYIHFESSASIEHAITAADKALYQAKKKGKNQIVVKKLL”: the protein production entry is reported as “failed”.

For “MDKNEIGLNAGKVWQLLSNNDKWSYGNLKKKSGLKDKDLGAALGWLAREDKIEFEQEEEELYVYLCVNVYIGLEHHHHHH”, the protein production entry was “failed”.

For “MDKPILKDSMKLFEALGTIKSRSMFGGFGLFADETMFALVVNNQLHIRADQQTSSDFETQGLKPYVYKKRGFPVVTKYYAISSELWESSDRLIEVAKKSLENAKLEKEQQASTKPNRLKDLPNLRLATERMLKKAGIDSVAQLEEEGALSAYKAIRDTHSTTVSLELLWALEGAINGTHWSVVPQSRREELMNGLS”, the protein production entry was “not failed”.

“MDKRIDLTEGKITSNLIKLSIPIMATSFIQMAYNMADMIWVGRIGSNAVAAVGTAGFFPWLGMAFVMISKVGAEIKVAQSLGRNDIDSTKDYIKSAFQINIILAIIYSIILLLFNSQLIGFFDLGDAEVIKMAKTYLIAVALGMIFNFLNPVFTAVFTGSGDSRIPFIANTIGLIFNIVFDPILIFGIGIFPEMGVLGAALATVLAQVIVTVTFLYIMIKSKAEYLKINILSGIKINCMKTLFHIGLPAALQSGLFTVFSMFIGKIVAVFGPVPIAVQKVGSQVEAIAWMTAGGISTALSTFVGQNYGAGKLKRIVKGFNITMIISLIVGVFASLVLIFFGEEIFRIFIPEAQAIEQGTVYLKILGYCQILVCVEITTTGAFNGLGRTYIPSIISILLTGARIPMAYIMCKPEFLGLEGIWWAISITGALKGVVVYAIYRYLYKKNKLFKVYKDENGEECISI”: the protein production entry is “failed”.

Consider “MDKRLQQDRIVDKMERFLSTANEEEKDVLSSIVDGLLAKQERRYATYLASLTQIESQEREDGRFEVRLPIGPLVNNPLNMVHGGITATLLDTAMGQMVNRQLPDGQSAVTSELNIHYVKPGMGTYLRAVASIVHQGKQRIVVEGKVYTDQGETVAMGTGSFFVLRSRGLEHHHHHH”, for which the protein production entry was “not failed”.

As for “MDKTDSIDIDKQVNTDELFGHPKGLYICFATELWERFSFYGMKYLLLLYLTKYHLFSDGEGLEVLGSYAGLVYTLPVIGGMLADRYLGMKKSVIFGGILLCLGHLLMAVEGHQAVQYAAGTILTSDLTLNNGAVLSAGTLLTETIKIQDLAALNVFYFALSLIVVGVGFLKPNISTIVGQLYSKDDPRRDSGFTIFYMGINLGSFAATIICVYLGETYGWRYGFGAAGIGMLFGLVTFTKGLKYLRGLAEPPDVAVLSEKVWGLISREYLIYLTAILSLSVFWLVIQHEPVVFAAQQVLLVVSGVGLIGYAALKGSREEFQQMLVLMVLIGSTIVFWALFEQAAGSMTLFADRVVERNIAGIEITAGQFGALNAGFIIMLALPFAALWVWLEKFRLNPNIPIKFALGIIQAGLGFGVLVFGAQFPDEAGKISLWWLVLAYLIHTTGELCLSPVGLSAVTKLAIHRVVGLSMGVWFLATALSETLAMRLGKLAAIDTQGGELNSVSDNLIIYTQLFEFLMWIGIGTGVVVLLISPLLKRGMHGVR”, the protein production result is “failed”.

As to “MDKTIYEQMLLKNYKGAEGAEEAWDARANHFYKSQQRGRSELVEKVTAILQERGLLAGADLLDIGGGSGRYAVPFAAHAEHVTITDISANMLELARRNAQEAGVTNLTYAKLEWTGADLAAWQWRKRFDLVFASMCPAIRSPEGLYKMLEAAKGFCLINQYIEATDSLSAYLTQVLDPPRSYEPYNDRDMVQAVFNLLWLEGYEPEICYLRQREVTSFTVEGAVEQYGGRYHQAAQLKRMDLAELISRHAGQVTFSVDSKATLAMILWKV”, the protein production result is given as “failed”.

“MDKVFGRTQGLKKSELKRISNLYRRRLPKDRVLTPELAHTLAALSAEVGRPLSLVLDREGRVVRVAVGDAKDVPFPEEGWSERRLSGYRLLHTHLGPGGLSRPDLSVLFLRRLDNLAALEVEADGRPGLLHLAFLSPPRALEEDWRVLPPKPFHQYLDLDLWGEVMALEEELSRQARVLEVRDGSGERALLVGVDTGEGPEAEAVLRELAELTRTAGGVPVKQILVFRKSLDPRYLVGLGKLEELKSLAYHENASTLIFGVDLTPAQAREIERVTGLKVLDRTQLILDIFALHAKTPEAQAQVELAQLRYLLPRLVGKGKEMSRLGGGIGTRGPGETKLEVDRRRLQDRIAHLSRKLQDYALRRQEARQKRKRRGVPLVAVVGYTNAGKTTLLRALTRAGEEGEDKLFATLRPLTRRGFLPGVGEVLFTDTVGFIRHMPEELLTAFRATLEEVREADVLVHVLDASEEGALERHRVVRDLLLDLGVEAPVVLALNKADRAAPYDLYFLGERLGGVPVSALKGTGLKELKEALARALLDLGVRPQAWAQYT”: the protein production result was “failed”.

With “MDKYLSANSLEGVIDNEFSMPAPRWLNTYPAGPYRFINREFFIIAYETDPDLLQAILPPDMELLEPVVKFEFIRMPDSTGFGDYTESGQVVPVRYKGEEGGFTISMFLDCHAPIAGGREIWGFPKKLAKPKLFVEEDTLIGILKYGSIDIAIATMGYKHRPLDAEKVLESVKKPVFLLKNIPNVDGTPLVNQLTKTYLTDITVKGAWTGPGSLELHPHALAPISNLYIKKIVSVSHFITDLTLPYGKVVADYLA”, the protein production entry is “not failed”.

For “MDLDNLFKTTSSSKDKKNNTIDLVVSDDMAFLQAIDELYAIEGFASPLKVDDIDDESWHKTSAEIKHVVLDLRDCGELVSEVAEISSRLDVSISLIVLSNTDSILMRDKVLSLGANYILWDPELDGLLGALKESGKDTFSPTVKKKSRIAKRVLMLGSKGGVGVSTISAFLSHSLSQQASLKTLLVEHDTLALNSDIFLGLKGLKAQQNSIDLNQSELDAAIAGSYVHPIKDKLDFLALEKNIACISDHADSLFRISNELVDQYNFIIDSLPLNAINELTSEDINERYNRIFVVCEPSVASLRAYHSIKKKLGKAEHRIIFSMTRSQKDYMMPLQGAKEKIKAKDTIDFVYEANLEKLIIQQGIHNTAKIKFTPAIANMVNSLTGKKVKVQKKFAWFKK”, the protein production entry was “failed”.

Regarding “MDLFLAMRVYVKVVETGSLTAAAQACSISTTMVGNHLRALEQRLGVSLLQRTTRRQRLTEFGTAYYQRCLEVLGLVAQSEQLAEQAQGEPTGTLRITAPLTFGSELLAPALVGFSQRFPDVKLDLVLTNQRLDMIDNGFDVAIRLGNLAQSSPLIARPLQDYTLTICAAPDYLARHSAPTRPEDLRAHNCLAFAYPAGDEWRTAGTQWRMTGPEGEVLVDVDGSMVANTSAGLYQAARAGMGVVMLPDALVQRDLQEGRLVALLPDYHLPRRPMNLLYVQDRYRLPKLRSFVEFATALWGR”, the protein production result was “failed”.

Turning to “MDLFNAPIAPLQVLHDQQGGVRYWPHLLPPALAQEAFDALRDDADWRSQRREMYDRVVDVPRLLASYRLDDALPAGLPLQRLLDAVQAVLPAPYNAVGLNLYRDGRDSVAMHHDALHTLVAPHPIALLSLGTPRRMQLRAKDGSTRAVALELAPGSLLAMSHASQHTHVHGIAKSTRAVGERISVVFRVRPAQRMAAGQHGPHWEPVQS”, the protein production entry is “failed”.

“MDLGYLKSKESGFIAGMILCTAFMGSSFPSGKYLISEEAMPAFYAGGWRFLLAGGLILAFCAAKDGLGAILPASGGSVIKGALFVLVVGCLQTAGTMGFLNLALTTLSASMASLLLFTNPLWVAILAHFALGETLSWHKVVALVCGILGVSLCLGGGADHGLGGIVIALAGSLCWALCTLISKKHKFDKSVFVFTGWQLTLGALVMLAISKLSGEAYDIDRITGWGIACFIWLVGPASIGSFGLWFTALSRRGATVTSSYLFLVPLFSAVFSMMVLGEAVSPHSLIGGAIIIVALWLINLPQTVSAVWRERLGL”: the protein production entry is recorded as “failed”.

With “MDLIGLRIRNIRKIKQLTLKEAAKGIISVPYLANIENGVKVASFETLMHIAKRLEIPEEALLIGNEDLNKELLQELKQIFDLLVFSNTKEAGDRLDQIAANVDLLCESPVIELSFYWLQAGFYYKTWEFSKAREIERKYLNSNEKRVVESFPPDLLSYYYYGQAVKHSHATCDYQLAVEYWEKSIDLTDKAAFQVVFQVGLCINYICLNNYEPALKHIECAWNLIKRFPSKDQERITAILYLYGYINFQIGFMTEAKRKFEEVLVFFNMYPEAKTMYSFLVRFKLAEIERVEGNHELFDEKIVCLYEELMAHEASEIGFNNNDYLVITELMVIFAEQGSVLEASNLLAIINKVTEQVMEINFFVTYTETLLLYHQNKQSSYEKKMLDLLKKIDESNDPALIERVKKHASKHFADSTKYKMAYNILA”, the protein production entry is given as “failed”.
